The results in this text go back to patent US20240058465A1 (SUTRO BIOPHARMA, published 2024).

Assay [1] deals with T1, human ROR1 Frizzled domain (hROR1-Fz) (human, UniProt Q01973 165-305).
T1 construct: Acro Biosystems, made in HEK293
Put plainly: SPR Biacore, IgG on anti-Fc, ROR1-Fz analyte. How it is done: Anti-Fc polyclonal antibodies were immobilized onto a CMS chip (GE Life Sciences) using amine coupling chemistry (from Amine Coupling Kit, GE Life Sciences). The immobilization steps were carried out at a flow rate of 25 μL/min in 1×HBS-EP+buffer (GE Life Sciences; 10× Stock diluted before use). The sensor surfaces were activated for 7 min with a mixture of NHS (0.05 M) and EDC (0.2 M). The Anti-Fc antibodies were injected over all 4 flow cells at a concentration of 25 ug/ml in 10 mM sodium acetate, pH 4.5, for 7 min. Ethanolamine (1 M, pH 8.5) was injected for 7 min to block any remaining activated groups.
Off-rate and kinetic binding experiments were performed at 25° C. using 1×HBS-EP+buffer. Test and control antibodies were injected over the anti-Fc surface at concentrations of 5-10 μg/mL for 12 seconds at a flow rate of 10 μL/min on flow cells 2, 3 and 4, followed by a buffer wash for 30 seconds at the same flow rate. […] After capturing ligand (antibody) on the anti-Fc surface, the analyte (hROR1, Fz or Kr domains, Acro Biosystems, Delaware) was bound for 180 seconds, followed by a 600 second dissociation phase at a flow rate of 50 μL/min. Between each ligand capture and analyte binding cycle, regeneration was carried out using 2 injections of 10 mM Glycine pH 2.0 for 30 seconds at 30 μL/min, followed by a 30 second buffer wash step.

Another assay deals with T2, human ROR1 (hROR1) (human, UniProt Q01973 30-937).
T2 construct: On HCT116-hROR1 transfectants, Mino cells or Ntera-2 cells, as the assay of each row says; also called receptor tyrosine kinase like orphan receptor 1
As to the kind of experiment: flow cytometry, HCT116-hROR1 cells. As for the experimental part:
A mix of ROR1 positive and negative cells was prepared as follows. Ror1 negative cells were washed 2× in PBS then incubated in PBS containing 1 nM CellTrace™ Oregon Green488® (Life Technologies) at 37° C. for 30 minutes. Cells were then washed 2× with RPMI w/10% fetal calf serum (or FCS), washed 2× with FACS buffer (PBS+0.5% BSA), suspended thoroughly in ice-cold FACS buffer at a final concentration of 4×10^6 cells/ml and kept on ice. ROR1 positive cells were washed 2× in PBS and suspended with ice-cold FACS buffer at 4×10^6 cells/ml. ROR1 positive and negative cells were then mixed to obtain a 1-1 cell suspension and seeded at 50 μl per well on 96 well polypropylene plates. 50 μl of 6-12 point dilutions of anti-ROR1 variants starting from concentrations of ˜100-200 nM antibody was dispensed using BioMekFX (Beckman Coulter) into each well. Cells were then incubated on ice for 1 hr, washed with FACS buffer and incubated for 1 hr on ice with 50 μl FACS buffer containing 2.5 μg/ml Alexa647-conjugated Goat Anti-Human IgG dispensed using BioMekFX (Beckman Coulter). Cells were then washed 2× with FACS buffer and fixed for 10 minutes in 200 μl PBS with 2% PFA prior to fluorescence detection. Samples were acquired using a Beckton Dickinson LSRII FACS. Mean Fluorescence Intensity of ROR1 antibody binding was analyzed using FlowJo® software (Tree Star, Inc.).
For orientation: In flow cytometry, cells or beads pass a laser one at a time.

B1: SRP1943-C02 (antibody, IgG1, V domains shown)
VH: EVQLVESGGGLAQPGGSLRLSCAAPGFNINDYYIHWVRQAPGKGLEWVGAIDPNSGSTDYADSVKGRFAISADTSKNTAYLQMNSLRAEDTAVYYCARSRWFRVLWSYVFDYWGQGTLVTVSS
VL: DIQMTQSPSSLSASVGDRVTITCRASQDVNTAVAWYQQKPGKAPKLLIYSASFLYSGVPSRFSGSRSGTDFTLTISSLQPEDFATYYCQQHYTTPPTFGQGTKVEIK
notes: Parent of SRP2193; His/FLAG-tagged IgG1, cell-free; also called Antibody 70
B1: in assay [1], the affinity, expressed as Kd, was 97.6 nM; the koff (usually a measure of how fast the partners let go of each other) turned out to be 0.05 s⁻¹; the kon (in general, the rate constant with which the complex forms) came to 539000 M⁻¹ s⁻¹.

B2: SRP2193-C06 (antibody, IgG1, V domains shown)
VH: EVQLVESGGGLVQPGGSLRLSCAASGFNIIVHYIHWVRQAPGKGLEWVSAIDPISGSTQWADSVKGRFTISADTSKNTAYLQMNSLRAEDTAVYYCARSRWRRALWIYVFDYWGQGTLVTVSS
VL: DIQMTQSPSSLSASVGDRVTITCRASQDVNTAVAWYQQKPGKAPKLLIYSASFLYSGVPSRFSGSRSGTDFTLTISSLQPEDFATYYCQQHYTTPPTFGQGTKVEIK
notes: His/FLAG-tagged IgG1, cell-free
In the case of B2, in the assay with human ROR1 (hROR1), the “Bmax (MFI)” value came to 14500 MFI and binding was put at a Kd of 4.16 nM.

B3: SRP2193-B10 (antibody, IgG1, V domains shown)
VH: EVQLVESGGGLVQPGGSLRLSCAASGFNIADYYVHWVRQAPGKGLEWVGAIDPNSGYTVKADSVKGRFTISADTSKNTAYLQMNSLRAEDTAVYYCARSRWLRVLWSFVFDYWGQGTLVTVSS
VL: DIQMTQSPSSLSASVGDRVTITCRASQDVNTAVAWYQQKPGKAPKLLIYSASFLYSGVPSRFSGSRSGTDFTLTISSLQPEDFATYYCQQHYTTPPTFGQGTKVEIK
notes: His/FLAG-tagged IgG1, cell-free; also called Antibody 88
B3: in the assay with human ROR1 (hROR1), the “Bmax (MFI)” value came to 14700 MFI and the affinity, expressed as Kd, was 1.08 nM.

B4: SRP2193-B07 (antibody, IgG1, V domains shown)
VH: EVQLVESGGGLVQPGGSLRLSCAASGFNINNSYIHWVRQAPGKGLEWVGAIDPNSGSTLSADSVKGRFTISADTSKSTAYLQMNSLRAEDTAVYYCARSRWFRVLWSYIFDYWGQGTLVTVSS
VL: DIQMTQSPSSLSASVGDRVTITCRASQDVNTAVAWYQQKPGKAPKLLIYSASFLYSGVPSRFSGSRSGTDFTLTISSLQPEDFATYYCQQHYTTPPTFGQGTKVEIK
notes: as for B2
With B4, in the assay with human ROR1 (hROR1), the “Bmax (MFI)” value is 15500 MFI and binding was put at a Kd of 0.6 nM.

B5: SRP2193-C10 (antibody, IgG1, V domains shown)
VH: EVQLVESGGGLVQPGGSLRLSCAASGFNINNAYIHWVRQAPGKGLEWVGAIDPRSGSTISADSMKGRFTISADTSKNTAYLQMNSLRAEDTAVYYCARSRWFRVLWSFGFDYWGQGTLVTVSS
VL: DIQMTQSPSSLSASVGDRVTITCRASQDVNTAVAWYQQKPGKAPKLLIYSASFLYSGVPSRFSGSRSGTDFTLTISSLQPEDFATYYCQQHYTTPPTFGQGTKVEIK
notes: His/FLAG-tagged IgG1, cell-free; also called Antibody 123
Consider B5, for which, in the assay with human ROR1 (hROR1), the “Bmax (MFI)” value was 16600 MFI and binding was characterised by a dissociation constant (Kd) of 0.32 nM.

B6: SRP2193-C01 (antibody, IgG1, V domains shown)
VH: EVQLVESGGGLVQPGGSLRLSCAASGLNINDHYIHWVRQAPGKGLEWVGTIDPKSGSTHVADSVKGRFTISADTSKNTAYLQMNSLRAEDTAVYYCARSRWFRVLWSYVFDYWGQGTLVTVSS
VL: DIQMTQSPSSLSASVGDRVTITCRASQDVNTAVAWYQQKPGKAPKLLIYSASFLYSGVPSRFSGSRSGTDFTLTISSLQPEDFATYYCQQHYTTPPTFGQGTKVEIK
notes: as for B2
As for B6, in the assay with human ROR1 (hROR1), the “Bmax (MFI)” value came to 15900 MFI and binding was put at a Kd of 0.39 nM.

B7: SRP2193-C08 (antibody, IgG1, V domains shown)
VH: EVQLVESGSGLVQPGGSLRLSCAASGFNINHYYIHWVRQAPGKGLEWVGAIDPYPGSTYNADSVKGRFTISADTSKNTAYLQMNSLRAEDTAVYYCARSRWFRVLWSYVFDYWGQGTLVTVSS
VL: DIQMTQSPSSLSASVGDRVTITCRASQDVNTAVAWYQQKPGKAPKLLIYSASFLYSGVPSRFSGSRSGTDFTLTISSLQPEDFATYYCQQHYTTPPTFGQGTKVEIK
notes: His/FLAG-tagged IgG1, cell-free; also called Antibody 99
For B7, in the assay with human ROR1 (hROR1), the “Bmax (MFI)” value was 15000 MFI and the affinity, expressed as Kd, was 0.72 nM.

B8: SRP2193-C03 (antibody, IgG1, V domains shown)
VH: EVQLVESGGGLVQPGGSLRLSCAASGFNINYSYIHWVRQAPGKGLEWVGAIEPKSGSTASADSVKGRFTISADTSKNTAYLQMNSLRAEDAAVYYCARSRWYRVLWSYVLDYWGQGTLVTVSS
VL: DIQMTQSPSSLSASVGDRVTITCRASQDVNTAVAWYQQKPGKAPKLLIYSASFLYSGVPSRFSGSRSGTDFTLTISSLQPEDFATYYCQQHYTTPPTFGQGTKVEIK
notes: as for B2
Turning to B8, in the assay with human ROR1 (hROR1), the “Bmax (MFI)” value was 15700 MFI and the Kd (usually the equilibrium constant for the complex coming apart) was determined as 0.14 nM.

B9: SRP2193-B08 (antibody, IgG1, V domains shown)
VH: EVQLVESGGGLVQPGGSLRLSCAASGFNIKDYYIHWVRQAPGKGLEWVSAIDPSPGATLDADSVKGRFTISADTSKNTAYLQMNSLRAEDTAVYYCARSRWFRVLWSYALDYWGQGTLVTVSS
VL: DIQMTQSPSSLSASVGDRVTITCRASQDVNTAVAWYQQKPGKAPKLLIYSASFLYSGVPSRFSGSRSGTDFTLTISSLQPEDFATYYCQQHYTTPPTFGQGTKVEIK
notes: His/FLAG-tagged IgG1, cell-free; also called Antibody 90
In the case of B9, in the assay with human ROR1 (hROR1), the “Bmax (MFI)” value worked out at 14300 MFI and the Kd came out at 1.15 nM.

B10: SRP2193-B05 (antibody, IgG1, V domains shown)
VH: EVQLVESGGGLVQPGGSLRLSCAASGFNINQYYIHWVRQAPGEGLEWVGAIDPIGGSTHLADSVKGRFTISADTSKNTAYLQMNSLRAEDAAVYYCARSRWYRVLWSYVFDYWGQGTLVTVSS
VL: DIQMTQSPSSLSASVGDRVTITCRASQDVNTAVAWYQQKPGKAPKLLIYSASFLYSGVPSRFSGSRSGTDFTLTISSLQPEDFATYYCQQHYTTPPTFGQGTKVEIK
notes: His/FLAG-tagged IgG1, cell-free; also called Antibody 109
In the case of B10, in the assay with human ROR1 (hROR1), the “Bmax (MFI)” value came to 15400 MFI and the affinity, expressed as Kd, was 0.47 nM.

B11: SRP2193-C05 (antibody, IgG1, V domains shown)
VH: EVQLVESGGGLVQPGGSLRLSCAASGFNIKHSYIHWVRQAPGKGLEWVGAIDPHNGSTASADSVKGRFTISADTSKNTAYLQMNSLRAEDTAVHYCARSRWFRVLWSYVIDYWGQGTLVTVSS
VL: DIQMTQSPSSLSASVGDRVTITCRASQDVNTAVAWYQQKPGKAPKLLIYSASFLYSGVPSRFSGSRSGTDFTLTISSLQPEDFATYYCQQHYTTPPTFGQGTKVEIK
notes: His/FLAG-tagged IgG1, cell-free; also called Antibody 91
As to B11, in the assay with human ROR1 (hROR1), the “Bmax (MFI)” value was determined as 15100 MFI and the Kd amounted to 1.75 nM.
